Target: soluble monomeric 1059 gp120 (HIV-1 clone 1059_09.A4.1460 (clade B …, strain))
Experiment: ELISA

binding result: binds
B1: N6 (CD4-binding site broadly neutralizing antibody) (antibody, V domains shown)
VH: RAHLVQSGTAMKKPGASVRVSCQTSGYTFTAHILFWFRQAPGRGLEWVGWIKPQYGAVNFGGGFRDRVTLTRDVYREIAYMDIRGLKPDDTAVYYCARDRSYGDSSWALDAWGQGTTVVVSA
VL: YIHVTQSPSSLSVSIGDRVTINCQTSQGVGSDLHWYQHKPGRAPKLLIHHTSSVEDGVPSRFSGSGFHTSFNLTISDLQADDIATYYCQVLQFFGRGSRLHIK
